The results in this text go back to patent US20200157212A1 (Pfizer, published 2020).

T1: Rat ROBO2 on cells (rat, UniProt Q7TPD3 22-1469 (mouse entry))
T1 construct: overexpressed on HEK293 cells in flow cytometry; endogenous on rat SVZ neuronal explants in the SVZa assay
T1 chain: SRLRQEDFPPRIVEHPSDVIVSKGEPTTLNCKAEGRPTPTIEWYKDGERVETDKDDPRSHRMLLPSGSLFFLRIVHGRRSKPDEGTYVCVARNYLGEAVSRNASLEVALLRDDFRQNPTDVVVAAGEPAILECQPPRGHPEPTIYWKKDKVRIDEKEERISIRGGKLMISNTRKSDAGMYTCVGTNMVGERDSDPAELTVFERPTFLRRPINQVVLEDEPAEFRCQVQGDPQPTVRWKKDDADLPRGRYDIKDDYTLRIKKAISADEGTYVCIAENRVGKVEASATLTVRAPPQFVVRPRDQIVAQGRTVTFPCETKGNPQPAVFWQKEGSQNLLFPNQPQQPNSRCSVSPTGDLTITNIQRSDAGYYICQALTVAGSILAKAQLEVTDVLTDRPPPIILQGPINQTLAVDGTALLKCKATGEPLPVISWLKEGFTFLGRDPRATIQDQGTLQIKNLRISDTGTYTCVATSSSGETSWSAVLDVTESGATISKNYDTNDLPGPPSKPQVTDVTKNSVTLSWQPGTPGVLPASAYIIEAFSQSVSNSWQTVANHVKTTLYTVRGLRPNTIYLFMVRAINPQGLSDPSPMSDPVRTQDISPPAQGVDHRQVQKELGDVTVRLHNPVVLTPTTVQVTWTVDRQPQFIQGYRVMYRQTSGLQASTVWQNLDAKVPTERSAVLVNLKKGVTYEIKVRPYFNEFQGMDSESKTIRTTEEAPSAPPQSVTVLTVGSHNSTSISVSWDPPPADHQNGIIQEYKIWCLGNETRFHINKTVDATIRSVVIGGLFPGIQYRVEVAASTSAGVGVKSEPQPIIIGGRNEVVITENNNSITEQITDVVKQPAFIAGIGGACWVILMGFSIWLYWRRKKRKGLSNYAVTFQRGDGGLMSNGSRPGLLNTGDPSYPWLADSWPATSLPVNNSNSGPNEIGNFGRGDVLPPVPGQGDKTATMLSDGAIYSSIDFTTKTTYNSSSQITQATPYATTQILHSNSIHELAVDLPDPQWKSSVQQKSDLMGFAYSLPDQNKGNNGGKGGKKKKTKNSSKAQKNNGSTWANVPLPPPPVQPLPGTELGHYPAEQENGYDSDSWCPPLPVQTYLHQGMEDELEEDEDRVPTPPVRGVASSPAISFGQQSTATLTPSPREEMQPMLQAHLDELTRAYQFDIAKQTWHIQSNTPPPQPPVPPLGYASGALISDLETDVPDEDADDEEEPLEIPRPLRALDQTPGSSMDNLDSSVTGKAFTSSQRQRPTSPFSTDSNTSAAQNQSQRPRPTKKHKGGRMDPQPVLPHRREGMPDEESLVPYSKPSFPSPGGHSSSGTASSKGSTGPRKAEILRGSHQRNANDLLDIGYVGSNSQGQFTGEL

B1: 93H2 (antibody, human IgG1, kappa, V domains shown)
VH: EVQLVQSGAEVKKPGASVKVSCKASGYTFTGYYMHWVRQAPGQGLEWMGWINPNSGATNFPQKFQGRVTMTRDTSITTAYMDLSRLRSDDTAVYYCARESGDDAFDIWGQGTMVTVSS
VL: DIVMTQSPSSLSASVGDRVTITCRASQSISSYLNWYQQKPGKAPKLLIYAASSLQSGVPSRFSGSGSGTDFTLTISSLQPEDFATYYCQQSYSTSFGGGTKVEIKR
notes: also called parental 93H2; 93H2 mAb
B2: Abcs25 (antibody, human IgG1, kappa, V domains shown)
VH: EVQLVQSGAEVKKPGASVKVSCKASGYTFTGYYMHWVRQAPGQGLEWMGWINPKDGDTEFPQKFQGRVTMTRDTSITTAYMDLSRLRSDDTAVYYCARESGDDAFDIWGQGTMVTVSS
VL: DIVMTQSPSSLSASVGDRVTITCRASQSISSYLNWYQQKPGKAPKLLIYAASSLQSGVPSRFSGSGSGTDFTLTISSLQPEDFATYYCQQSVGLSFGGGTKVEIKR
notes: chain-shuffled IgG
B3: Abcs35 (antibody, human IgG1, kappa)
heavy: EVQLVQSGAEVKKPGASVKVSCKASGYTFTGYYMHWVRQAPGQGLEWMGWINPKNGDTEFPQKFQGRVTMTRDTSITTAYMDLSRLRSDDTAVYYCARESGDDAFDIWGQGTMVTVSSASTKGPSVFPLAPSSKSTSGGTAALGCLVKDYFPEPVTVSWNSGALTSGVHTFPAVLQSSGLYSLSSVVTVPSSSLGTQTYICNVNHKPSNTKVDKKVEPKSCDKTHTCPPCPAPEAAGAPSVFLFPPKPKDTLMISRTPEVTCVVVDVSHEDPEVKFNWYVDGVEVHNAKTKPREEQYNSTYRVVSVLTVLHQDWLNGKEYKCKVSNKALPAPIEKTISKAKGQPREPQVYTLPPSREEMTKNQVSLTCLVKGFYPSDIAVEWESNGQPENNYKTTPPVLDSDGSFFLYSKLTVDKSRWQQGNVFSCSVMHEALHNHYTQKSLSLSPGK
light: DIVMTQSPSSLSASVGDRVTITCRASQSISSYLNWYQQKPGKAPKLLIYAASSLQSGVPSRFSGSGSGTDFTLTISSLQPEDFATYYCQQSVGLFFGGGTKVEIKRTVAAPSVFIFPPSDEQLKSGTASVVCLLNNFYPREAKVQWKVDNALQSGNSQESVTEQDSKDSTYSLSSTLTLSKADYEKHKVYACEVTHQGLSSPVTKSFNRGEC
notes: fully human IgG1; VH of Ab96 with VL of Ab123

In the assay the target is T1, Rat ROBO2 on cells. In words: flow cytometry, HEK293 cells, average of n = 3. The protocol: Binding of the antibodies was detected using a secondary fluorochrome conjugated anti-human IgG F(ab′)₂ antibody and samples were analyzed on a Fortessa cytometer (BD Biosciences). The fold ROBO2 selectivity was calculated as the geometric mean fluorescence intensity (Geo MFI) with ROBO2 cells/Geo MFI with ROBO1 cells. A fold change higher than 3 was considered to be ROBO2 specific (Table 2, Fold Selectivity). Some affinity matured clones had increased ROBO1 reactivity, for example Abcs 55, CTI-R2-10 and CTIR2-13.
Based upon several criteria, Abcs25 and Abcs35 were selected for further characterization. Using flow cytometry, improvement in the binding EC₅₀ to human ROBO2 relative to the parental 93H2 was evaluated. Starting at 6.7 nM, 11-point, 3-fold dilution series were made for each antibody and used to stain HEK293 overexpressing human ROBO2 as described above for the ROBO2 fold selectivity (Example 2). […] In addition to measuring improved binding to human ROBO2, it was important to ensure that high affinity binding to both cynomolgus monkey ROBO2 and rat ROBO2 was maintained. Using HEK293 cells overexpressing either cynomolgus monkey ROBO2 or rat ROBO2, the relative dose-dependent binding of 93H2, Abcs25 and Abcs35 was evaluated as described above. High affinity binding to both cynomolgus monkey and rat ROBO2 was maintained in Abcs25 and Abcs35 (Table 4). […] Briefly, Abcs35 was immobilized to 300 resonance units (RU) on a CM5 chip. Association of ROBO2 Ig1-Ig2-His (ROBO2) was measured over 5 minutes and dissociation was followed for a period of 10 minutes.
(A flow cytometer gives signals particle by particle.)
One may read the EC50 as the concentration that produces a half-maximal response. A higher EC50 goes with a need for much substance. Molecule B1 returned a 50% effective concentration (EC50) of 1.2 nM.

B2: the EC50 turned out to be 0.062 nM. As to B3, the concentration giving a half-maximal response (EC50) was determined as 0.048 nM.
